The text below walks through data of PMC4573853 (Genes & Development, 2015).

No end group written: not given here.

Experiment [1] has as its target T1, Taf14 YEATS domain (residues 1-132) (S. cerevisiae, UniProt P35189 1-132).
T1 sequence (looked up): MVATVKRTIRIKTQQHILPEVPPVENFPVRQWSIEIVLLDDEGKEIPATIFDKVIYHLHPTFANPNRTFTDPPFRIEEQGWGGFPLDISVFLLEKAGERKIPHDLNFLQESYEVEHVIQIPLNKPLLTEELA
Put plainly: NMR titration.

The target in the next experiment is T2, Taf14 (residues 1-138) (S. cerevisiae, UniProt P35189 1-138).
T2 sequence (looked up): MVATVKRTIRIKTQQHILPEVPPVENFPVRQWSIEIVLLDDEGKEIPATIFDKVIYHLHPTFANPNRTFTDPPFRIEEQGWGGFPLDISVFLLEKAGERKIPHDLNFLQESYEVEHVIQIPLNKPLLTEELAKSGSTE
Briefly: crystal structure.

B1: H3K9ac(5-13) peptide (peptide, UniProt P68431 6-14, looked up)
peptide: Ac-QTARK(Ac)STGG
As for B1, the binding result (in experiment [1]; with Taf14 (residues 1-138)) was “binds” in each case.
